Experimental data from FireProtDB (doi:10.1021/bi9910169).

B1: Lysozyme C, P61626 (parent)
chain: MKALIVLGLVLLSVTVQGKVFERCELARTLKRLGMDGYRGISLANWMCLAKWESGYNTRATNYNAGDRSTDYGIFQINSRYWCNDGKTPGAVNACHLSCSALLQDNIADAVACAKRVVRDPQGIRAWVAWRNRCQNRDVRQYVQGCGV

Variants of: B1
Conditions: Homo sapiens; pH 2.7; Thermal; DSC; glycine-HCl 0.05 M; reversible: yes; structure 1LZ1; whole UniProt chain shown
In the case of T70A, the Tm is reported as 61.9 °C, the “unfolding enthalpy (calorimetric)” value is reported as 103 kcal/mol and the “unfolding enthalpy (van 't Hoff)” value is reported as 109 kcal/mol.
In the case of T70V, the Tm is reported as 62.1 °C, the “unfolding enthalpy (calorimetric)” value is reported as 102 kcal/mol and the “unfolding enthalpy (van 't Hoff)” value is reported as 107 kcal/mol.
In the case of T58V, the Tm is reported as 59.2 °C, the “unfolding enthalpy (calorimetric)” value is reported as 93 kcal/mol and the “unfolding enthalpy (van 't Hoff)” value is reported as 99.9 kcal/mol.
For T58A, the Tm was 59.4 °C, the “unfolding enthalpy (calorimetric)” value was 99.9 kcal/mol and the “unfolding enthalpy (van 't Hoff)” value was 102 kcal/mol.
For T88A, the Tm was 60 °C, the “unfolding enthalpy (calorimetric)” value was 101 kcal/mol and the “unfolding enthalpy (van 't Hoff)” value was 104 kcal/mol.
With T88V the Tm was 62.6 °C, the “unfolding enthalpy (calorimetric)” value was 107 kcal/mol and the “unfolding enthalpy (van 't Hoff)” value was 111 kcal/mol.

Same assay, conditions: Homo sapiens; pH 2.85; Thermal; DSC; glycine-HCl 0.05 M; reversible: yes; structure 1LZ1; whole UniProt chain shown
With T70A the Tm was 64.4 °C, the “unfolding enthalpy (calorimetric)” value was 105 kcal/mol and the “unfolding enthalpy (van 't Hoff)” value was 112 kcal/mol.
With T70V the Tm was 64.2 °C, the “unfolding enthalpy (calorimetric)” value was 105 kcal/mol and the “unfolding enthalpy (van 't Hoff)” value was 110 kcal/mol.
For T58V, the Tm was 63.2 °C, the “unfolding enthalpy (calorimetric)” value was 110 kcal/mol and the “unfolding enthalpy (van 't Hoff)” value was 113 kcal/mol.
With T58A the Tm was 63.3 °C, the “unfolding enthalpy (calorimetric)” value was 107 kcal/mol and the “unfolding enthalpy (van 't Hoff)” value was 114 kcal/mol.
In the case of T88A, the Tm is reported as 62.2 °C, the “unfolding enthalpy (calorimetric)” value is reported as 103 kcal/mol and the “unfolding enthalpy (van 't Hoff)” value is reported as 106 kcal/mol.
For T88V, the Tm was 65.3 °C, the “unfolding enthalpy (calorimetric)” value was 112 kcal/mol and the “unfolding enthalpy (van 't Hoff)” value was 117 kcal/mol.

Same assay, conditions: Homo sapiens; pH 3; Thermal; DSC; glycine-HCl 0.05 M; reversible: yes; structure 1LZ1; whole UniProt chain shown
With T70A the Tm was 66.9 °C, the “unfolding enthalpy (calorimetric)” value was 108 kcal/mol and the “unfolding enthalpy (van 't Hoff)” value was 114 kcal/mol.
For T70V, the Tm was 66.6 °C, the “unfolding enthalpy (calorimetric)” value was 107 kcal/mol and the “unfolding enthalpy (van 't Hoff)” value was 113 kcal/mol.
For T58V, the Tm was 66.3 °C, the “unfolding enthalpy (calorimetric)” value was 112 kcal/mol and the “unfolding enthalpy (van 't Hoff)” value was 119 kcal/mol.
With T58A the Tm was 66.5 °C, the “unfolding enthalpy (calorimetric)” value was 114 kcal/mol and the “unfolding enthalpy (van 't Hoff)” value was 117 kcal/mol.
In the case of T88A, the Tm is reported as 64.7 °C, the “unfolding enthalpy (calorimetric)” value is reported as 107 kcal/mol and the “unfolding enthalpy (van 't Hoff)” value is reported as 110 kcal/mol.
With T88V the Tm was 67.6 °C, the “unfolding enthalpy (calorimetric)” value was 115 kcal/mol and the “unfolding enthalpy (van 't Hoff)” value was 121 kcal/mol.

Same assay, conditions: Homo sapiens; pH 3.1; Thermal; DSC; glycine-HCl 0.05 M; reversible: yes; structure 1LZ1; whole UniProt chain shown
With T70A the Tm was 68.9 °C, the “unfolding enthalpy (calorimetric)” value was 109 kcal/mol and the “unfolding enthalpy (van 't Hoff)” value was 118 kcal/mol.
For T70V, the Tm was 68.7 °C, the “unfolding enthalpy (calorimetric)” value was 111 kcal/mol and the “unfolding enthalpy (van 't Hoff)” value was 114 kcal/mol.
For T58V, the Tm was 68.7 °C, the “unfolding enthalpy (calorimetric)” value was 115 kcal/mol and the “unfolding enthalpy (van 't Hoff)” value was 123 kcal/mol.
For T58A, the Tm was 68.6 °C, the “unfolding enthalpy (calorimetric)” value was 117 kcal/mol and the “unfolding enthalpy (van 't Hoff)” value was 121 kcal/mol.
For T88A, the Tm was 67.1 °C, the “unfolding enthalpy (calorimetric)” value was 110 kcal/mol and the “unfolding enthalpy (van 't Hoff)” value was 113 kcal/mol.
In the case of T88V, the Tm is reported as 70.3 °C, the “unfolding enthalpy (calorimetric)” value is reported as 119 kcal/mol and the “unfolding enthalpy (van 't Hoff)” value is reported as 123 kcal/mol.

Same assay, conditions: Homo sapiens; pH 2.5; Thermal; DSC; glycine-HCl 0.05 M; reversible: yes; structure 1LZ1; whole UniProt chain shown
In the case of T70V, the Tm is reported as 58.8 °C, the “unfolding enthalpy (calorimetric)” value is reported as 98.7 kcal/mol and the “unfolding enthalpy (van 't Hoff)” value is reported as 104 kcal/mol.
With T58V the Tm was 57 °C, the “unfolding enthalpy (calorimetric)” value was 96.6 kcal/mol and the “unfolding enthalpy (van 't Hoff)” value was 104 kcal/mol.
With T58A the Tm was 56.6 °C, the “unfolding enthalpy (calorimetric)” value was 97.5 kcal/mol and the “unfolding enthalpy (van 't Hoff)” value was 103 kcal/mol.
In the case of T88A, the Tm is reported as 57.3 °C, the “unfolding enthalpy (calorimetric)” value is reported as 98.5 kcal/mol and the “unfolding enthalpy (van 't Hoff)” value is reported as 99.9 kcal/mol.
With T88V the Tm was 59.5 °C, the “unfolding enthalpy (calorimetric)” value was 102 kcal/mol and the “unfolding enthalpy (van 't Hoff)” value was 106 kcal/mol.

Same assay, conditions: Homo sapiens; pH 2.54; Thermal; DSC; glycine-HCl 0.05 M; reversible: yes; structure 1LZ1; whole UniProt chain shown
For T61A, the Tm was 61.1 °C, the “unfolding enthalpy (calorimetric)” value was 104 kcal/mol and the “unfolding enthalpy (van 't Hoff)” value was 105 kcal/mol.

Same assay, conditions: Homo sapiens; pH 2.74; Thermal; DSC; glycine-HCl 0.05 M; reversible: yes; structure 1LZ1; whole UniProt chain shown
With T61A the Tm was 64.5 °C, the “unfolding enthalpy (calorimetric)” value was 108 kcal/mol and the “unfolding enthalpy (van 't Hoff)” value was 109 kcal/mol.
For T29A, the Tm was 66.8 °C, the “unfolding enthalpy (calorimetric)” value was 112 kcal/mol and the “unfolding enthalpy (van 't Hoff)” value was 115 kcal/mol.

Same assay, conditions: Homo sapiens; pH 2.9; Thermal; DSC; glycine-HCl 0.05 M; reversible: yes; structure 1LZ1; whole UniProt chain shown
With T61A the Tm was 67.1 °C, the “unfolding enthalpy (calorimetric)” value was 111 kcal/mol and the “unfolding enthalpy (van 't Hoff)” value was 112 kcal/mol.

Same assay, conditions: Homo sapiens; pH 2.51; Thermal; DSC; glycine-HCl 0.05 M; reversible: yes; structure 1LZ1; whole UniProt chain shown
In the case of T61V, the Tm is reported as 65 °C, the “unfolding enthalpy (calorimetric)” value is reported as 99.9 kcal/mol and the “unfolding enthalpy (van 't Hoff)” value is reported as 112 kcal/mol.
For T29V, the Tm was 62.9 °C, the “unfolding enthalpy (calorimetric)” value was 104 kcal/mol and the “unfolding enthalpy (van 't Hoff)” value was 107 kcal/mol.

Same assay, conditions: Homo sapiens; pH 2.71; Thermal; DSC; glycine-HCl 0.05 M; reversible: yes; structure 1LZ1; whole UniProt chain shown
In the case of T61V, the Tm is reported as 68.4 °C, the “unfolding enthalpy (calorimetric)” value is reported as 105 kcal/mol and the “unfolding enthalpy (van 't Hoff)” value is reported as 114 kcal/mol.
With T29V the Tm was 66.2 °C, the “unfolding enthalpy (calorimetric)” value was 110 kcal/mol and the “unfolding enthalpy (van 't Hoff)” value was 112 kcal/mol.

Same assay, conditions: Homo sapiens; pH 3.02; Thermal; DSC; glycine-HCl 0.05 M; reversible: yes; structure 1LZ1; whole UniProt chain shown
For T61V, the Tm was 73 °C, the “unfolding enthalpy (calorimetric)” value was 108 kcal/mol and the “unfolding enthalpy (van 't Hoff)” value was 118 kcal/mol.
With T29A the Tm was 71.4 °C, the “unfolding enthalpy (calorimetric)” value was 116 kcal/mol and the “unfolding enthalpy (van 't Hoff)” value was 119 kcal/mol.

Same assay, conditions: Homo sapiens; pH 3.2; Thermal; DSC; glycine-HCl 0.05 M; reversible: yes; structure 1LZ1; whole UniProt chain shown
With T61V the Tm was 75.4 °C, the “unfolding enthalpy (calorimetric)” value was 113 kcal/mol and the “unfolding enthalpy (van 't Hoff)” value was 121 kcal/mol.

Same assay, conditions: Homo sapiens; pH 2.82; Thermal; DSC; glycine-HCl 0.05 M; reversible: yes; structure 1LZ1; whole UniProt chain shown
In the case of T29A, the Tm is reported as 68.5 °C, the “unfolding enthalpy (calorimetric)” value is reported as 115 kcal/mol and the “unfolding enthalpy (van 't Hoff)” value is reported as 116 kcal/mol.

Same assay, conditions: Homo sapiens; pH 3.22; Thermal; DSC; glycine-HCl 0.05 M; reversible: yes; structure 1LZ1; whole UniProt chain shown
With T29A the Tm was 73.4 °C, the “unfolding enthalpy (calorimetric)” value was 119 kcal/mol and the “unfolding enthalpy (van 't Hoff)” value was 120 kcal/mol.

Same assay, conditions: Homo sapiens; pH 2.81; Thermal; DSC; glycine-HCl 0.05 M; reversible: yes; structure 1LZ1; whole UniProt chain shown
For T29V, the Tm was 68.7 °C, the “unfolding enthalpy (calorimetric)” value was 114 kcal/mol and the “unfolding enthalpy (van 't Hoff)” value was 117 kcal/mol.

Same assay, conditions: Homo sapiens; pH 3.19; Thermal; DSC; glycine-HCl 0.05 M; reversible: yes; structure 1LZ1; whole UniProt chain shown
For T29V, the Tm was 73 °C, the “unfolding enthalpy (calorimetric)” value was 117 kcal/mol and the “unfolding enthalpy (van 't Hoff)” value was 121 kcal/mol.
